Patent publication US20200317768A1 (published 2020)
Numbering of substitutions follows the chain as printed. In names and notes the source's numbering stands.

T1: cynomolgus monkey FcγRIIa1 extracellular domain, His-tagged (cynomolgus monkey)
T1 construct: also called cyno FcgRIIa1; cynoFcγRIIa1; not shown: His-tag added to the C-terminus
T1 chain: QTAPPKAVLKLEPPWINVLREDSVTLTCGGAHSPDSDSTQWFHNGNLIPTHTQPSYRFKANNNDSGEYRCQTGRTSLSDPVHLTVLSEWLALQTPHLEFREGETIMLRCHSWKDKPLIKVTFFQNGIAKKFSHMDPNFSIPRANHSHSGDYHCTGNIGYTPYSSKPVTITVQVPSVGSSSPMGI

T2: cynomolgus monkey FcγRIIb extracellular domain, His-tagged (cynomolgus monkey)
T2 construct: also called cyno FcgRIIb; cynoFcγRIIb; not shown: His-tag added to the C-terminus
T2 chain: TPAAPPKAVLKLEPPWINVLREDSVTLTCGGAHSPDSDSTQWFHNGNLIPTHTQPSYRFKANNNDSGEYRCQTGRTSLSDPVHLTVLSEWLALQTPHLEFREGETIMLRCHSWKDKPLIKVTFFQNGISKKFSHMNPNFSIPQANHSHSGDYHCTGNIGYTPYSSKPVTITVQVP

T3: cynomolgus monkey FcγRIIa2 extracellular domain, His-tagged (cynomolgus monkey)
T3 construct: also called cyno FcgRIIa2; cynoFcγRIIa2; not shown: His-tag added to the C-terminus
T3 chain: T1 chain with P95T, T121A, I127K, A128S, K130N, D135N, R142Q

T4: human FcγRIIaR extracellular domain, His-tagged (human, UniProt P12318 34-217)
T4 construct: also called human FcgRIIaR; FcγRIIa (type R); not shown: His-tag added to the C-terminus
T4 chain: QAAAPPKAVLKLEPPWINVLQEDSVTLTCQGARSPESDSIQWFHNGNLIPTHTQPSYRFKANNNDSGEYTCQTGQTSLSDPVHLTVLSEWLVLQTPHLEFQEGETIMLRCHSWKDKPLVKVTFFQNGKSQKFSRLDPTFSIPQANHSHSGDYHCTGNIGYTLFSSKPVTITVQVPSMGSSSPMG

T5: human FcγRIIb extracellular domain, His-tagged (human, UniProt P31994 43-217)
T5 construct: also called human FcgRIIb; not shown: His-tag added to the C-terminus
T5 sequence: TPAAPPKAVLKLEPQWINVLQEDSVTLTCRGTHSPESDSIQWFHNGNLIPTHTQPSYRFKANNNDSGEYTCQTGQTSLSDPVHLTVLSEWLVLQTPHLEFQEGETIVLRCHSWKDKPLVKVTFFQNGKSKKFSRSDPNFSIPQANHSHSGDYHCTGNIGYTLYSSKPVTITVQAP

T6: cynomolgus monkey FcγRIIa3 extracellular domain, His-tagged (cynomolgus monkey)
T6 construct: also called cyno FcgRIIa3; cynoFcγRIIa3; not shown: His-tag added to the C-terminus
T6 chain: T1 chain with P95T, T121A, A128S, H133P, D135N

T7: human FcγRIIaH extracellular domain, His-tagged (human, UniProt P12318 34-217)
T7 construct: also called human FcgRIIaH; FcγRIIa (type H); not shown: His-tag added to the C-terminus
T7 sequence: T4 chain with R134H

T8: human FcγRIIaH extracellular domain, C-terminal His-tag (human, UniProt P12318 34-217)
T8 construct: also called human FcγRIIa (type H); FcgRIIaH; not shown: His-tag added to C-terminus
T8 sequence: T4 chain with R134H

B1: M103205H795-MY263/M103202L889-SK1 (antibody, human IgG1, kappa)
heavy: QVTLKESGPVLVKPTETLTLTCTVSGIDLSHDDISWVRQAPGKGLEWVGIISYAGSTYYASWAKGRLTISKDTSKNQVVLTMTNMDPVDTATYYCARGVPAYSHGGDLWGQGTLVTVSSASTKGPSVFPLAPSSKSTSGGTAALGCLVKDYFPEPVTVSWNSGALTSGVHTFPAVLQSSGLYSLSSVVTVPSSSLGTQTYICNVNHKPSNTKVDKKVEPKSCDKTHTCPPCPAPELLQGPSVFLFPPKPKDTLMISRTPEVTCVVVDVSDEDPEVKFNWYVDGVEVHNAKTKPREEQYNSTYRVVSVLTVLHQDWLNGKEYKCKVSNKALPKPIEKTISKAKGQPREPQVYTLPPSREEMTKNQVSLTCLVKGFYPSDIAVEWESNGQPENNYKTTPPVLDSDGSFFLYSKLTVDKSRWQQGNVFSCSVMHEALHNHYTQKSLSLSP
light: DIVMTQSPATLSLSPGERATLSCTSSQSVYHANWLSWFQQKPGQPPKLLIYWASTLAYGVPSRFSGSGSGTDFTLTISSLQPEDAATYYCAGGYGGGRYAFGQGTKVEIKRTVAAPSVFIFPPSDEQLKSGTASVVCLLNNFYPREAKVQWKVDNALQSGNSQESVTEQDSKDSTYSLSSTLTLSKADYEKHKVYACEVTHQGLSSPVTKSFNRGEC
notes: copies: 2 + 2
B2: M103205H795-MY267/M103202L889-SK1 (antibody, human IgG1, kappa)
heavy: B1 heavy with Q238I
light: B1 light
notes: copies: 2 + 2
B3: M103205H795-MY264/M103202L889-SK1 (antibody, human IgG1, kappa)
heavy: B1 heavy with Q238L
light: B1 light
notes: copies: 2 + 2
B4: M103205H795-MY265/M103202L889-SK1 (antibody, human IgG1, kappa)
heavy: B1 heavy with Q238T
light: B1 light
notes: copies: 2 + 2
B5: MS_M103205H795-SG1/M103202L889-SK1 (antibody, human IgG1, kappa)
heavy: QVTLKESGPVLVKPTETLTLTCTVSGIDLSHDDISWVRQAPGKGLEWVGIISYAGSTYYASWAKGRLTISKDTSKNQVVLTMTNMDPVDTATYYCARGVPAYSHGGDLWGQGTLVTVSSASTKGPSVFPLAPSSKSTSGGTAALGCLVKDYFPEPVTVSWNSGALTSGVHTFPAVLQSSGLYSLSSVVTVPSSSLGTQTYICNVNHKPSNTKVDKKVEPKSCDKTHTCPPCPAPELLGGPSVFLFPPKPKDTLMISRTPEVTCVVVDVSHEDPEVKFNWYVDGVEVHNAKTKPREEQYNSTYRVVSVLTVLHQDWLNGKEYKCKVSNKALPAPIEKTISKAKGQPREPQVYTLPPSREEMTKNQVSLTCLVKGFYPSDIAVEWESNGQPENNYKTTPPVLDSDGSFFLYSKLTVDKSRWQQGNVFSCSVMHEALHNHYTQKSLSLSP
light: B1 light
notes: Parent antibody with SG1 human heavy chain constant region; also called MS1032LO06-SG1
B6: M103205H795-MY351 / M103202L889-SK1 (antibody, human IgG1, kappa)
heavy: B1 heavy with Q238N, Q313R, D415K
light: B1 light
notes: CH with G236N/H268D/Q311R/A330K/D413K against SG1 (EU numbering); also called MS1032LO06-MY351
B7: M103205H795-MY344 / M103202L889-SK1 (antibody, human IgG1, kappa)
heavy: B1 heavy with Q238N, Q297L, Q313R, D415K
light: B1 light
notes: CH with G236N/H268D/Q295L/Q311R/A330K/D413K against SG1 (EU numbering); also called MS1032LO06-MY344
B8: M103205H795-MY205 / M103202L889-SK1 (antibody, human IgG1, kappa)
heavy: B1 heavy with Q238N, Q297L
light: B1 light
notes: CH with G236N/H268D/Q295L/A330K against SG1 (EU numbering); also called MS1032LO06-MY205
B9: M103205H795-PK2 / M103202L889-SK1 (antibody, human IgG1, kappa)
heavy: B1 heavy with Q238N, D270E, P398M, S402R, D415K
light: B1 light
notes: CH with G236N/H268E/A330K/P396M/S400R/D413K against SG1 (EU numbering); also called MS1032LO06-PK2; MS103205H795-PK2
B10: M103205H795-MY201 / M103202L889-SK1 (antibody, human IgG1, kappa)
heavy: B1 heavy with Q238N
light: B1 light
notes: CH with G236N/H268D/A330K against SG1 (EU numbering); also called MS1032LO06-MY201
B11: M103205H795-MY101 / M103202L889-SK1 (antibody, human IgG1, kappa)
heavy: B1 heavy with Q238N, D270E, P398M
light: B1 light
notes: CH with G236N/H268E/A330K/P396M against SG1 (EU numbering); also called MS1032LO06-MY101
B12: M103205H795-MY335 / M103202L889-SK1 (antibody, human IgG1, kappa)
heavy: B1 heavy with Q238T, Q313R, D415K
light: B1 light
notes: CH with G236T/H268D/Q311R/A330K/D413K against SG1 (EU numbering); also called MS1032LO06-MY335

Molecular target: T1, cynomolgus monkey FcγRIIa1 …
Test: SPR; KD of SG1 divided by KD of the variant;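 further: relative to parent M103205H795-SG1 carrying the SG1 human heavy chain constant region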
Method: (§1) Regarding such interactions, KD values were calculated using the following 1:1 binding model described in BIACORE® T100 Software Handbook BR1006-48 Edition AE.
(§2) The behavior of interacting molecules according to the 1:1 binding model on BIACORE® can be described by Equation 1: Req=C·R max/(KD+C)+RI, wherein, Req is a plot of steady-state binding levels to analyte concentration. C is concentration, RI is bulk refractive index contribution in the sample, and Rmax is analyte binding capacity of the surface. When this equation is rearranged, KD can be expressed as Equation 2: KD=C·Rmax/(Req−RI)−C. KD can be calculated by substituting the values of Rmax, RI, and C into Equation 1 or Equation 2. From the current measurement conditions, RI=0, C=2 μmol/L can be used.
(§3) The resultant variants were expressed using M103202L889-SK1 as light chain and their affinity to human and cynoFcγRs were evaluated (Table 21).

KD fold (SG1 = 1)	Binder
1 fold	B1
1.3 fold	B2
0.6 fold	B3
1.5 fold	B4

Molecular target: T2, cynomolgus monkey FcγRIIb extracellular …
Test: SPR; KD of SG1 divided by KD of the variant;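 further: relative to parent M103205H795-SG1 carrying the SG1 human heavy chain constant region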
Method: as §1, §2, §3

KD fold (SG1 = 1)	Binder
1.8 fold	B1
2.1 fold	B2
0.7 fold	B3
3.1 fold	B4

Molecular target: T3, cynomolgus monkey FcγRIIa2 …
Test: SPR; KD of SG1 divided by KD of the variant;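 further: relative to parent M103205H795-SG1 carrying the SG1 human heavy chain constant region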
Method: as §1, §2, §3

KD fold (SG1 = 1)	Binder
1.7 fold	B1
2.6 fold	B2
0.9 fold	B3
2.7 fold	B4

Molecular target: T4, human FcγRIIaR extracellular domain, …
Test: SPR; KD of SG1 divided by KD of the variant;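 further: relative to parent M103205H795-SG1 carrying the SG1 human heavy chain constant region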
Method: as §1, §2, §3

KD fold (SG1 = 1)	Binder
1.5 fold	B1
2.5 fold	B2
0.5 fold	B3
2.5 fold	B4

molecular target: T5, human FcγRIIb extracellular domain, …; test: SPR; KD of SG1 divided by KD of the variant
Method: as §1, §2, §3

KD fold (SG1 = 1)	Binder
1.3 fold	B1
0.8 fold	B2
0.4 fold	B3
2.1 fold	B4

Molecular target: T6, cynomolgus monkey FcγRIIa3 …
Test: SPR; KD of SG1 divided by KD of the variant
Method: as §1, §2, §3

KD fold (SG1 = 1)	Binder
2.3 fold	B1
2.3 fold	B2
1.1 fold	B3
3.5 fold	B4

molecular target: T7, human FcγRIIaH extracellular domain, …; test: SPR; KD of SG1 divided by KD of the variant
Method: as §1, §2, §3

KD fold (SG1 = 1)	Binder
2.2 fold	B1
3.5 fold	B2
0.5 fold	B3
3.3 fold	B4

molecular target: T8, human FcγRIIaH extracellular domain, …; test: SPR (BIACORE), antibody captured, FcγR analyte
Method: The kinetic analysis of interactions between these antibodies and FcγR was carried out using BIACORE® T200 or BIACORE® 4000 (GE Healthcare). HBS-EP+ (GE Healthcare) was used as the running buffer, and the measurement temperature was set to 25° C. A chip produced by immobilizing Protein A. Protein A/G or mouse anti-human IgG kappa light chain (BD Biosciences) onto a Series S Sensor Chip CM4 or CM5 (GE Healthcare) by the amine-coupling method was used. […] After the measurement, the antibody captured on the chip was washed off by allowing reaction with 10 mM glycine-HCl, pH1.5 and 25 mM NaOH so that the chip was regenerated and used repeatedly. The sensorgrams obtained as measurement results were analyzed by the 1:1 Langmuir binding model using the BIACORE® Evaluation Software to calculate the binding rate constant ka (L/mol/s) and dissociation rate constant kd (l/s), and the dissociation constant KD (mol/L) was calculated from these values. […] Regarding such interactions, KD values were calculated using the following 1:1 binding model described in BIACORE® T100 Software Handbook BR1006-48 Edition AE.
as §2

Kd	Binder
690 nM	B5
1000 nM	B6
670 nM	B7
470 nM	B8
570 nM	B9
910 nM	B10
490 nM	B11
290 nM	B12
